Measured values from US20140087995A1 (published 2014).
Numbered stars: 1 amine (or outer) side, 2 acyl side, 3 side chain; on linkers, the order of the positions; unused ones are H or OH. Bridge positions count the residues as written; N and C are the ends. Side chains are listed from the residue outwards. Ends that are not written are not given here. * marks the point of attachment. C20 diacid = O=C(O)CCCCCCCCCCCCCCCCCCC(=O)*; γGlu = O=C(O)[C@H](CCC(=O)[*:2])N[*:1]; AEEA = NCCOCCOCC(=O)O

T1: human calcitonin receptor (human, UniProt P30988 25-474)
T1 sequence (looked up): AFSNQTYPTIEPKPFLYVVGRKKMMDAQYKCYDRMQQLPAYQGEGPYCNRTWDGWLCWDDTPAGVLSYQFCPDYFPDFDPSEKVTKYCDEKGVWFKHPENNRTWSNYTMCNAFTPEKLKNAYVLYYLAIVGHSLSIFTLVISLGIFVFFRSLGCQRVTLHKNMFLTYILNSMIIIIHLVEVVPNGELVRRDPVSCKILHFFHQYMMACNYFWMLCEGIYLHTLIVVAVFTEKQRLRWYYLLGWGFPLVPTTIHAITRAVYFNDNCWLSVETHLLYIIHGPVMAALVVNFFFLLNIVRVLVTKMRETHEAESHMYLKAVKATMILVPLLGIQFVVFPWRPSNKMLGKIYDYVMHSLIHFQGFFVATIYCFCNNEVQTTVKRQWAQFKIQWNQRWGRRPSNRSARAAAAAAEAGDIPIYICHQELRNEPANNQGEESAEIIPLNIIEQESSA

B1: N^ε1-[2-[2-[2-[[2-[2-[2-[[(4S)-4-carboxy-4-(19-carboxynonadecanoylamino)butanoyl]amino]ethoxy]ethoxy]acetyl]amino]ethoxy]ethoxy]acetyl]-[Arg17,Pro21,Pro27,His34 … (peptide)
peptide: K([AEEA-AEEA-γGlu-C20 diacid])CNTATCATQRLANFLRHSSPNFGAIPSSTNVGHNTY-NH2
modifications: disulfide 2-7; N-terminus assumed
SMILES: CC[C@H](C)[C@H](NC(=O)[C@H](C)NC(=O)CNC(=O)[C@H](Cc1ccccc1)NC(=O)[C@H](CC(N)=O)NC(=O)[C@@H]1CCCN1C(=O)[C@H](CO)NC(=O)[C@H](CO)NC(=O)[C@H](Cc1c[nH]cn1)NC(=O)[C@H](CCCNC(=N)N)NC(=O)[C@H](CC(C)C)NC(=O)[C@H](Cc1ccccc1)NC(=O)[C@H](CC(N)=O)NC(=O)[C@H](C)NC(=O)[C@H](CC(C)C)NC(=O)[C@H](CCCNC(=N)N)NC(=O)[C@H](CCC(N)=O)NC(=O)[C@@H](NC(=O)[C@H](C)NC(=O)[C@@H]1CSSC[C@H](NC(=O)[C@@H](N)CCCCNC(=O)COCCOCCNC(=O)COCCOCCNC(=O)CC[C@H](NC(=O)CCCCCCCCCCCCCCCCCCC(=O)O)C(=O)O)C(=O)N[C@@H](CC(N)=O)C(=O)N[C@@H]([C@@H](C)O)C(=O)N[C@@H](C)C(=O)N[C@@H]([C@@H](C)O)C(=O)N1)[C@@H](C)O)C(=O)N1CCC[C@H]1C(=O)N[C@@H](CO)C(=O)N[C@@H](CO)C(=O)N[C@H](C(=O)N[C@@H](CC(N)=O)C(=O)N[C@H](C(=O)NCC(=O)N[C@@H](Cc1c[nH]cn1)C(=O)N[C@@H](CC(N)=O)C(=O)N[C@H](C(=O)N[C@@H](Cc1ccc(O)cc1)C(N)=O)[C@@H](C)O)C(C)C)[C@@H](C)O
notes: also called compound 97
B2: N^ε1-[2-[2-[2-[[2-[2-[2-[[(4S)-4-carboxy-4-(19-carboxynonadecanoylamino)butanoyl]amino]ethoxy]ethoxy]acetyl]amino]ethoxy]ethoxy]acetyl]-[Arg17,Pro21,Pro27,Pro31 … (peptide)
peptide: K([AEEA-AEEA-γGlu-C20 diacid])CNTATCATQRLANFLRHSSPNFGAIPSSTPVGSNTY-NH2
modifications: disulfide 2-7; N-terminus assumed
SMILES: CC[C@H](C)[C@H](NC(=O)[C@H](C)NC(=O)CNC(=O)[C@H](Cc1ccccc1)NC(=O)[C@H](CC(N)=O)NC(=O)[C@@H]1CCCN1C(=O)[C@H](CO)NC(=O)[C@H](CO)NC(=O)[C@H](Cc1c[nH]cn1)NC(=O)[C@H](CCCNC(=N)N)NC(=O)[C@H](CC(C)C)NC(=O)[C@H](Cc1ccccc1)NC(=O)[C@H](CC(N)=O)NC(=O)[C@H](C)NC(=O)[C@H](CC(C)C)NC(=O)[C@H](CCCNC(=N)N)NC(=O)[C@H](CCC(N)=O)NC(=O)[C@@H](NC(=O)[C@H](C)NC(=O)[C@@H]1CSSC[C@H](NC(=O)[C@@H](N)CCCCNC(=O)COCCOCCNC(=O)COCCOCCNC(=O)CC[C@H](NC(=O)CCCCCCCCCCCCCCCCCCC(=O)O)C(=O)O)C(=O)N[C@@H](CC(N)=O)C(=O)N[C@@H]([C@@H](C)O)C(=O)N[C@@H](C)C(=O)N[C@@H]([C@@H](C)O)C(=O)N1)[C@@H](C)O)C(=O)N1CCC[C@H]1C(=O)N[C@@H](CO)C(=O)N[C@@H](CO)C(=O)N[C@H](C(=O)N1CCC[C@H]1C(=O)N[C@H](C(=O)NCC(=O)N[C@@H](CO)C(=O)N[C@@H](CC(N)=O)C(=O)N[C@H](C(=O)N[C@@H](Cc1ccc(O)cc1)C(N)=O)[C@@H](C)O)C(C)C)[C@@H](C)O
notes: also called compound 96
B3: N^ε1-[2-[2-[2-[[2-[2-[2-[[(4S)-4-carboxy-4-(19-carboxynonadecanoylamino)butanoyl]amino]ethoxy]ethoxy]acetyl]amino]ethoxy]ethoxy]acetyl]-[Arg17,Pro21,Pro27,Pro34 … (peptide)
peptide: K([AEEA-AEEA-γGlu-C20 diacid])CNTATCATQRLANFLRHSSPNFGAIPSSTNVGPNTY-NH2
modifications: disulfide 2-7; N-terminus assumed
SMILES: CC[C@H](C)[C@H](NC(=O)[C@H](C)NC(=O)CNC(=O)[C@H](Cc1ccccc1)NC(=O)[C@H](CC(N)=O)NC(=O)[C@@H]1CCCN1C(=O)[C@H](CO)NC(=O)[C@H](CO)NC(=O)[C@H](Cc1c[nH]cn1)NC(=O)[C@H](CCCNC(=N)N)NC(=O)[C@H](CC(C)C)NC(=O)[C@H](Cc1ccccc1)NC(=O)[C@H](CC(N)=O)NC(=O)[C@H](C)NC(=O)[C@H](CC(C)C)NC(=O)[C@H](CCCNC(=N)N)NC(=O)[C@H](CCC(N)=O)NC(=O)[C@@H](NC(=O)[C@H](C)NC(=O)[C@@H]1CSSC[C@H](NC(=O)[C@@H](N)CCCCNC(=O)COCCOCCNC(=O)COCCOCCNC(=O)CC[C@H](NC(=O)CCCCCCCCCCCCCCCCCCC(=O)O)C(=O)O)C(=O)N[C@@H](CC(N)=O)C(=O)N[C@@H]([C@@H](C)O)C(=O)N[C@@H](C)C(=O)N[C@@H]([C@@H](C)O)C(=O)N1)[C@@H](C)O)C(=O)N1CCC[C@H]1C(=O)N[C@@H](CO)C(=O)N[C@@H](CO)C(=O)N[C@H](C(=O)N[C@@H](CC(N)=O)C(=O)N[C@H](C(=O)NCC(=O)N1CCC[C@H]1C(=O)N[C@@H](CC(N)=O)C(=O)N[C@H](C(=O)N[C@@H](Cc1ccc(O)cc1)C(N)=O)[C@@H](C)O)C(C)C)[C@@H](C)O
notes: also called compound 98
B4: N^ε1-[2-[2-[2-[[(4S)-4-carboxy-4-(19-carboxynonadecanoylamino)butanoyl]amino]ethoxy]ethoxy]acetyl]-[Ala14,Arg17,Pro21,Pro27,Pro31]-h-amylin (peptide)
peptide: K([AEEA-γGlu-C20 diacid])CNTATCATQRLAAFLRHSSPNFGAIPSSTPVGSNTY-NH2
modifications: disulfide 2-7; N-terminus assumed
SMILES: CC[C@H](C)[C@H](NC(=O)[C@H](C)NC(=O)CNC(=O)[C@H](Cc1ccccc1)NC(=O)[C@H](CC(N)=O)NC(=O)[C@@H]1CCCN1C(=O)[C@H](CO)NC(=O)[C@H](CO)NC(=O)[C@H](Cc1c[nH]cn1)NC(=O)[C@H](CCCNC(=N)N)NC(=O)[C@H](CC(C)C)NC(=O)[C@H](Cc1ccccc1)NC(=O)[C@H](C)NC(=O)[C@H](C)NC(=O)[C@H](CC(C)C)NC(=O)[C@H](CCCNC(=N)N)NC(=O)[C@H](CCC(N)=O)NC(=O)[C@@H](NC(=O)[C@H](C)NC(=O)[C@@H]1CSSC[C@H](NC(=O)[C@@H](N)CCCCNC(=O)COCCOCCNC(=O)CC[C@H](NC(=O)CCCCCCCCCCCCCCCCCCC(=O)O)C(=O)O)C(=O)N[C@@H](CC(N)=O)C(=O)N[C@@H]([C@@H](C)O)C(=O)N[C@@H](C)C(=O)N[C@@H]([C@@H](C)O)C(=O)N1)[C@@H](C)O)C(=O)N1CCC[C@H]1C(=O)N[C@@H](CO)C(=O)N[C@@H](CO)C(=O)N[C@H](C(=O)N1CCC[C@H]1C(=O)N[C@H](C(=O)NCC(=O)N[C@@H](CO)C(=O)N[C@@H](CC(N)=O)C(=O)N[C@H](C(=O)N[C@@H](Cc1ccc(O)cc1)C(N)=O)[C@@H](C)O)C(C)C)[C@@H](C)O
notes: also called compound 72
B5: N^ε1-[2-[2-[2-[[(4S)-4-carboxy-4-(19-carboxynonadecanoylamino)butanoyl]amino]ethoxy]ethoxy]acetyl]-[Arg14,Arg17,Pro21,Pro27,Pro31]-h-amylin (peptide)
peptide: K([AEEA-γGlu-C20 diacid])CNTATCATQRLARFLRHSSPNFGAIPSSTPVGSNTY-NH2
modifications: disulfide 2-7; N-terminus assumed
SMILES: CC[C@H](C)[C@H](NC(=O)[C@H](C)NC(=O)CNC(=O)[C@H](Cc1ccccc1)NC(=O)[C@H](CC(N)=O)NC(=O)[C@@H]1CCCN1C(=O)[C@H](CO)NC(=O)[C@H](CO)NC(=O)[C@H](Cc1c[nH]cn1)NC(=O)[C@H](CCCNC(=N)N)NC(=O)[C@H](CC(C)C)NC(=O)[C@H](Cc1ccccc1)NC(=O)[C@H](CCCNC(=N)N)NC(=O)[C@H](C)NC(=O)[C@H](CC(C)C)NC(=O)[C@H](CCCNC(=N)N)NC(=O)[C@H](CCC(N)=O)NC(=O)[C@@H](NC(=O)[C@H](C)NC(=O)[C@@H]1CSSC[C@H](NC(=O)[C@@H](N)CCCCNC(=O)COCCOCCNC(=O)CC[C@H](NC(=O)CCCCCCCCCCCCCCCCCCC(=O)O)C(=O)O)C(=O)N[C@@H](CC(N)=O)C(=O)N[C@@H]([C@@H](C)O)C(=O)N[C@@H](C)C(=O)N[C@@H]([C@@H](C)O)C(=O)N1)[C@@H](C)O)C(=O)N1CCC[C@H]1C(=O)N[C@@H](CO)C(=O)N[C@@H](CO)C(=O)N[C@H](C(=O)N1CCC[C@H]1C(=O)N[C@H](C(=O)NCC(=O)N[C@@H](CO)C(=O)N[C@@H](CC(N)=O)C(=O)N[C@H](C(=O)N[C@@H](Cc1ccc(O)cc1)C(N)=O)[C@@H](C)O)C(C)C)[C@@H](C)O
notes: also called compound 64
B6: N^ε1-[2-[2-[2-[[(4S)-4-carboxy-4-(19-carboxynonadecanoylamino)butanoyl]amino]ethoxy]ethoxy]acetyl]-[Arg14,Arg17,Pro21,Pro27]-h-amylin (peptide)
peptide: K([AEEA-γGlu-C20 diacid])CNTATCATQRLARFLRHSSPNFGAIPSSTNVGSNTY-NH2
modifications: disulfide 2-7; N-terminus assumed
SMILES: CC[C@H](C)[C@H](NC(=O)[C@H](C)NC(=O)CNC(=O)[C@H](Cc1ccccc1)NC(=O)[C@H](CC(N)=O)NC(=O)[C@@H]1CCCN1C(=O)[C@H](CO)NC(=O)[C@H](CO)NC(=O)[C@H](Cc1c[nH]cn1)NC(=O)[C@H](CCCNC(=N)N)NC(=O)[C@H](CC(C)C)NC(=O)[C@H](Cc1ccccc1)NC(=O)[C@H](CCCNC(=N)N)NC(=O)[C@H](C)NC(=O)[C@H](CC(C)C)NC(=O)[C@H](CCCNC(=N)N)NC(=O)[C@H](CCC(N)=O)NC(=O)[C@@H](NC(=O)[C@H](C)NC(=O)[C@@H]1CSSC[C@H](NC(=O)[C@@H](N)CCCCNC(=O)COCCOCCNC(=O)CC[C@H](NC(=O)CCCCCCCCCCCCCCCCCCC(=O)O)C(=O)O)C(=O)N[C@@H](CC(N)=O)C(=O)N[C@@H]([C@@H](C)O)C(=O)N[C@@H](C)C(=O)N[C@@H]([C@@H](C)O)C(=O)N1)[C@@H](C)O)C(=O)N1CCC[C@H]1C(=O)N[C@@H](CO)C(=O)N[C@@H](CO)C(=O)N[C@H](C(=O)N[C@@H](CC(N)=O)C(=O)N[C@H](C(=O)NCC(=O)N[C@@H](CO)C(=O)N[C@@H](CC(N)=O)C(=O)N[C@H](C(=O)N[C@@H](Cc1ccc(O)cc1)C(N)=O)[C@@H](C)O)C(C)C)[C@@H](C)O
notes: also called compound 82

What follows are binders tested against T1, human calcitonin receptor (assay: cell-based or functional assay).

Row | Binder | hCTR funct. EC50
1 | B1 | 11.8 nM
2 | B2 | 3.8 nM
3 | B3 | 1.63 nM
4 | B4 | 4.76 nM
5 | B5 | 22.9 nM
6 | B6 | 12.7 nM
